Measurements taken from PMC9908306.

Biological target: human glyceraldehyde 3-phosphate dehydrogenase (GAPDH) (human) (UniProt P04406)
Assay: cryo-EM structure; single particle analysis of GAPDH on EG-grid, 0.5 mg/ml; D2 symmetry applied

Sequence of human glyceraldehyde 3-phosphate dehydrogenase (GAPDH), P04406 1-335 (enzyme; other documents disagree on this pair) (P04406 whole entry): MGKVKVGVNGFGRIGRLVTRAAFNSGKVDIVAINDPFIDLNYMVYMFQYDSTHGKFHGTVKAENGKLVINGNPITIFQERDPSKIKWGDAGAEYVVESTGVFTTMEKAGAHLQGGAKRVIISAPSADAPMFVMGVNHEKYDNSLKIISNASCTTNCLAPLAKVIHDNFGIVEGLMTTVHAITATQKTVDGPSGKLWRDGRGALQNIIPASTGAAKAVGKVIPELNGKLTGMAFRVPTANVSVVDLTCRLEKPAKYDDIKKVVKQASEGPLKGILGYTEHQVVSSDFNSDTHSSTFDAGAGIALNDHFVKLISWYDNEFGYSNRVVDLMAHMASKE

How did the stoichiometry N turn out when “human glyceraldehyde 3-phosphate dehydrogenase (GAPDH), P04406 1-335 (enzyme; other documents disagree on this pair)” was run?
Its stoichiometry N is 4.
